In the supplement of paper PMC10567573:

B1: TNNI2 (parent)
chain: DWRKNIEEKSGMEGRKKMFESES

Variants of: B1
Test: protein stability index of a GFP-peptide fusion (GPS, HEK-293T) (PSI 1-6); higher = more stable
Conditions: c terminus: native
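Also: lentivirally expressed fusions sorted by FACS into six bins by GFP to DsRed ratio, PSI derived from sequencing read proportions per bin multiplied by bin number.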

Protein stability index, by site and new letter:
G14: R 2.55; C 2.56; M 1.99; H 1.94; V 1.08; N 2.22; T 1.41; D 1.67; K 1.31; A 1.43; F 1.93; P 2.56; I 1.6; S 1.63; W 2.78; E 1.38
M12: W 1.39; R 2.74; S 2.5; T 3.47; V 2.39; Q 2.02; Y 2.94
E13: F 1.73; K 2.94; A 2.01; N 2.75; R 2.72; C 2.78; L 2.47; P 2.34; M 2.03; T 3.7; D 2.52; W 1.81; Q 2.03; G 3.41; H 2.19; V 2.33; S 1.77; Y 2.15
R15: D 2.44; L 2.56; K 3.5; Q 3.12; P 2.98; A 2.59; N 2.77; T 2.7; M 1.51; I 1.71; H 2.15; E 2.8; G 1.76; Y 2.15; F 1.62
K16: Y 1.24; E 2.39; V 2.32; L 2.85; C 2.19; Q 2.19; N 1.95; M 1.92; R 2.3; G 1.78; S 1.98; I 1.83; T 2.07; W 1.85; H 1.85; P 2.72; D 3.19
E20: S 4.04; A 2.88; I 2.89; Q 3.54; W 3.71; T 2.94; C 2.67; P 5.16; G 4.73; L 2.33; K 2.92; F 4.56; V 2.79; R 2.22; M 2.75; Y 3.81; D 3.65; H 4.26
S21: Y 4.05; H 2.9; N 3.39; C 3.19; L 3.92; P 1.37; Q 4.96; A 1.5; T 4.47; V 2.39; W 3.35; K 3.49; M 3.92; F 4.49; E 5.2; R 3.41; D 5.47
K17: I 3.32; L 2.01; H 3.84; A 2.25; E 2.36; N 2.56; F 2.48; Q 2.39; Y 2.6; V 3.07; P 3.08; T 2.39; S 2.82; R 1.97; C 2.41; M 2.42; D 2.83
M18: P 4.59; V 2.39; G 5.42; N 4.47; S 4.36; A 2.26; E 4.34; Y 1.85; H 2.7; L 1.13; I 1.98; R 4.45; W 1.66; C 3.89; T 4.9; K 2.78; D 6
F19: C 4.42; K 5.64; H 3.76; Y 2.22; A 5.06; I 4.22; T 4.8; M 2.82; D 5.43; P 4.51; Q 4.78; W 1.48; N 5.46; E 5.03; S 5.6; R 4.97
E22: M 3.29; D 3.81; H 4; G 5.04; C 3.71; L 3.17; F 4.22; K 4.67; I 3.3
